Results reported in paper PMC2063504, “Glycerate kinase of the hyperthermophilic archaeon Thermoproteus tenax: new insights into the phylogenetic distribution and physiological role of members of the three different glycerate kinase classes” (BMC Genomics, 2007).

Columns and labels:
[1] = target: T1, glycerate kinase (GarK; class II glycerate kinase, MOFRL family) (Thermoproteus tenax, UniProt G4RPE9); test: coupled assay, effector study; format: biochemical; details: product inhibitor, suggested competitive with ATP; 0.05 mM D-glycerate, 0.05 mM ATP (non-saturating), pH 7.5, 70 °C; mean of two measurements
T1 construct: full-length ORF, 398 residues, pET-24a (NdeI/EcoRI), E. coli BL21(DE3), no tag mentioned, conventional purification

[2] = test system: Nc1ncnc2c1ncn2[C@@H]1O[C@H](COP(=O)(O)OP(=O)(O)OP(=O)(O)O)[C@@H](O)[C@H]1O; test: discontinuous coupled assay (enolase, pyruvate kinase, lactate dehydrogenase; NADH); format: biochemical, Thermoproteus tenax; details: D-glycerate, 20 mM Mg2+, pH 7.5, 70 °C
O=C(O)[C@H](O)CO = test: as above; format: biochemical, Thermoproteus tenax; details: 5 mM ATP, 20 mM Mg2+, pH 7.5, 70 °C, D-glycerate below 0.3 mM (substrate inhibition above)

Nc1ncnc2c1ncn2[C@@H]1O[C@H](COP(=O)(O)OP(=O)(O)O)[C@@H](O)[C@H]1O [ADP]
% activity of control at 0.1 mM [1]: 39.1%

glycerate kinase (GarK; class II glycerate kinase, MOFRL family) (Thermoproteus tenax Kra 1)
Km [2]: 0.03 ± 0.01 mM
kcat [2]: 187 min⁻¹
Km (O=C(O)[C@H](O)CO): 0.02 ± 0.01 mM
kcat (O=C(O)[C@H](O)CO): 214 min⁻¹
